# Experiments:
# [1] = biological target: chicken MRP126 (chicken) (UniProt P28318); assay: SEC-MALS; Superose 12 10/300 GL; samples at 0.5-2 mg/ml in tris buffer (25 mM tris, 100 mM NaCl, pH 7.4) + 0.5 mM CaCl2; flow 0.2 ml/min
# [2] = biological target: human S100A9 (human) (UniProt P06702); assay: as above
# [3] = biological target: human S100A9 M63F (human) (UniProt P06702); assay: as above
# [4] = biological target: human S100A12 (human) (UniProt P80511); assay: as above
# [5] = biological target: opossum Toll-like receptor 4 (opossum)
substance,measurement,setting,value
chicken MRP126 (from UniProt P28318 1-119) (natural protein),stoichiometry N,[1],2
human S100A9 (from UniProt P06702 1-114) (natural protein),stoichiometry N,[2],2
human S100A9 M63F (from UniProt P06702 1-114) (natural protein),stoichiometry N,[3],2
human S100A12 (from UniProt P80511 1-92) (natural protein),stoichiometry N,[4],2
opossum S100A9 (natural protein),"NF-κB luciferase reporter in HEK293T cells transfected with opossum TLR4, MD-2 and CD14; activity against that of human A9 (fold of human A9 activity)",[5],0.5

# — paper PMC7213983
